B1: OR4K15 (parent)
chain: GUUAACGGUCAUAGGCCAUGGAAACUAGGAGCACCAUUUCGCUGCCAGUGAAGAAAUGAACAAAGAAAAUCUGGGCCAGGCAGGCAUCAAAAGAAAUAGUCUUGCGCUCAACCAGAAAGUCUGUAAUCAUUUUAAGGGUA

Variants of: B1
Experiment: self-cleavage, relative activity (ratio to wild type); higher = more cleavage; in vitro, sequencing; the parent is a self-cleaving ribozyme

Row | Variant | self-cleavage
1 | GUUAACGGUCAUAGGCCAUGGAAACUAGGAGCACCAUUUCGCUGCCAGUGAAGAAAUGGACAAAGAAAAUCUGGGCCAGGCAGGCAUCAAAAGAAAUAGUCUUGCGCUCCACCAGAAAGUCUGUAAUCAUUUUAAGGGUA [A59G A110C] | 0.44
2 | GUUAACGGUCAUAGGCCAUGGAAACUAGGAGCACCAUUUCGCUGCCAGUGAAGAAACGAACAAAGAAAAUCUGGGCCAGGCAGGCAUCAAAAGAAAUAGUCUUGCGCUCAACCAGGAAGUCUGUAAUCAUUUUAAGGGUA [U57C A116G] | 0.33
3 | GUUAACGGUCAUAGGCCAUGGAACCCAGGAGCACCAUUUCGCUGCCAGUGAAGAAAUGAACAAAGAAAAUCUGGGCCAGGCAGGCAUCAAAAGAAAUAGUCUUGCGCUCAACCAGAAAGUCUGUAAUCAUUUUAAGGGUA [A24C U26C] | 1.52
4 | GUUAACGGUCAUAGGCCAUGGAAACGAGGAGCACCAUUUCGCUGCCAGUGAAGAAAUGAACAAAGAAAAUCUGGGCCAGGCAGGCAUCAAAAGAAAUAGUCUUGCGCUCAACCUGAAAGUCUGUAAUCAUUUUAAGGGUA [U26G A114U] | 0.06
5 | GUUAACGGUCAUAGGCCAUGGAAACUAGGAGCACCAUUUCGCUGCCAGCGAAGAAAUGAACAAAGAAAAUCUGGGCCAGGCAGGCAUCAAAAGAAACAGUCUUGCGCUCAACCAGAAAGUCUGUAAUCAUUUUAAGGGUA [U49C U97C] | 1.29
6 | GUUAACGGUCAUAGGCCAUGGAAACUAGGAGCACCAUUUCGCUGCCAGUGAAGAAAUGAACAAAGAAAAUCUGGGCCAGGCAGGCAUCAAAAGAAAUAGUCUUGCGCUCAGCCAGAAAGUCUGUAAUCAUUUUGAGGGUA [A111G A134G] | 0.01
7 | GUUAACGGUCAUAGGCCAUGGAAACUAGGAGCACCAUUUCGCUGCCAGUGAAGAAAUGAACAAAGAAAAUCUGGGCCAGGCAGGCAUCAAAAGAAAUAGUCUUGCGCUCAACCAGAAAGCCUGUAAUCAUUCUAAGGGUA [U120C U132C] | 0.85
8 | GUUAACGGUCAUAGGCCAUGGAAACUAGGAGCACCAUUUCGCUGCCAGUGAAGAAAUGAACAAAGAAAAUCUGGGCCAGGCAGGCACCAAAAGAAAUAGUCUUGCGCUCAACCAGAAAGUCUGUAAUCAUUUUAAGGGCA [U87C U139C] | 0.35
9 | GUUAACGGUCAUAGGCCAUGGAAACUAGGAGCACCAUUUCGCUGCCAGUGAAGAUAUGAACAAAGAAAAUCUGGGCCAGGCAGGCAUCAAAAGAAAUAGUCUUGCGCUCACCCAGAAAGUCUGUAAUCAUUUUAAGGGUA [A55U A111C] | 0.06
10 | GUGAACGGUCAUAGGCCAUGGAAACUAGGAGCACCAUUUCGCUGCCAGUGAGGAAAUGAACAAAGAAAAUCUGGGCCAGGCAGGCAUCAAAAGAAAUAGUCUUGCGCUCAACCAGAAAGUCUGUAAUCAUUUUAAGGGUA [U3G A52G] | 0.67
11 | GUUAACGGUCAUAGGCCAUGGAAACUAGGAGCACCAUUUCGCUGCCAGUGAAGAAAUGAACAAAGACAAUCUGGGCCAGGCAGGCAUCAAAAGAAAUAGUCUUGCGCUCAACCAGAAAGUCUGUAAUCAUCUUAAGGGUA [A67C U131C] | 1.86
12 | GUUAACGGUCAUAGGCCGUGGAAACUAGGAGCACCAUUUCGCUGCCAGUGAAGAAAUGAACAAAGAAAAUCUGGGCCGGGCAGGCAUCAAAAGAAAUAGUCUUGCGCUCAACCAGAAAGUCUGUAAUCAUUUUAAGGGUA [A18G A78G] | 0.33
13 | GUUAACGGUCAUAGGCCAUGGAAACUAGGAGCACCAUUUCGCUGCCAGUGAAGAAAUGAACAAAGAAAAUCUGGGCCAGGCAGGCAUCAAAAGAGAUAGUCUUGCACUCAACCAGAAAGUCUGUAAUCAUUUUAAGGGUA [A95G G106A] | 0
14 | GUUAACGGUCAUAGGCCAUGGAAACUAGGAGCACCAUUUCGCCGCCAGUGAAGAAAUGAACAAAGAAAUUCUGGGCCAGGCAGGCAUCAAAAGAAAUAGUCUUGCGCUCAACCAGAAAGUCUGUAAUCAUUUUAAGGGUA [U43C A69U] | 1.74
15 | GCUAACUGUCAUAGGCCAUGGAAACUAGGAGCACCAUUUCGCUGCCAGUGAAGAAAUGAACAAAGAAAAUCUGGGCCAGGCAGGCAUCAAAAGAAAUAGUCUUGCGCUCAACCAGAAAGUCUGUAAUCAUUUUAAGGGUA [U2C G7U] | 1.2
16 | GUUAACGGUCUUAGGCCAUGGAAACUAGGAGCACCAUUUCGCUGCCAGUGAAGAAAUGAACAAAGAAAAUCUGGGCCAGGCAGGCAUCAAAAGAAAUAGUCUUGCGCUCAACCAGAAAGUCUGUAAUCAUCUUAAGGGUA [A11U U131C] | 1.15
17 | GUUAACGGUCAUAGGCCAUGGAAACUAGGAGCACCAUUUCGCUGCCAGUGAAGAAAUGAACAAAGAAAAUCUGGGCCAGGCAGGCAUCAAAAGAAAUAGUCUUGCGCUCAACCAGGAAGUCUGUAAUCAUUUUAAAGGUA [A116G G136A] | 1.65
18 | GUUAACGGUCAUAGGCCAUGGAAACUAGGAGCACCAUUUCGCAGCCAGUGAAGAAAUGAACAAAGAAAAUCUGGGCCAGGCAGGCAUCAAAAGAAACAGUCUUGCGCUCAACCAGAAAGUCUGUAAUCAUUUUAAGGGUA [U43A U97C] | 0.92
19 | GUUAACGGUCAUAGGCCAAGGAAACUAGGAGCACCAUUUCGCUGCCAGUGAAGAAAUGAACAAAGAAAAUCUGGGCCCGGCAGGCAUCAAAAGAAAUAGUCUUGCGCUCAACCAGAAAGUCUGUAAUCAUUUUAAGGGUA [U19A A78C] | 0.29
20 | GUUAACGGUCAUAGGCCAUGGAAACUAGGAGCACCAUUUCGCUGCCAGUGAAGAAAUGAACAAAGAAAAUCUGGGCCAGGCAGGCAUCAAAAGAAGUAGUCUUGCGCUCAACCGGAAAGUCUGUAAUCAUUUUAAGGGUA [A96G A114G] | 0.44
21 | GUUAACGGUCAUAGGCCAUGGAAACUAGGAGCACCAUUUCGCAGCCAGUGAAGAAAUGAACAAAGAAAAUCUGGGCCAGGCAGGCAUCAAAAGAAAUAGUCUUGCGCUCAACCAGAAAGUCUGUAAUCAUUUUGAGGGUA [U43A A134G] | 1.81

Source: the RNAGym collection of RNA variant scans (doi:10.7554/elife.90254)
